Test results: IntAct's records for PubMed 21784248

B1: Nucleoporin NIC96 (Chaetomium thermophilum (strain DSM 1495 / CBS 144.50 / IMI 039719)), G0S024 (parent)
chain: MSLIGNGPSVPPSSTKASLFSSPTTSANPTGGLFGSTTGGSSLFAPKTAGSTTTSTTQPTSTTGLGTSLFGTSTTANTQNTANAARPSLFTAGNSIFGTSTTQPGLGASSLTTAATSNQQAQQQQQQRQQHQQAAPTGALFDSLLARNKKQAEGETALGELPSLQLGLADLRQRLRKLGPSSDRPIEPGKAHYFLAASGVDPGAAVRDLGALGLQAKTERTAASVGPAAGPSGVSTTGFGTGLGEVDVDTYLSNLQTKTTLSMIADGLERSARDFDAFLEENVTLEWEAQRKRIYQHFGIKPRDSSVAGTTTAQPTATPSKDGQGTFGRSRRKASQPPPGERPAQRMSILGRSTMMRSVIGTPTRIGAHAPEFSDVEARKDSSGAAVASVDDRFLREKQAKLAEKIREFNDARQRGTPFYICRDLADLESKSGDRHGPHIVEAYRAVMEMVGEHPDAGEAPRERQFAKMYLDPNTQSANALAMRKQILKGATTFLEKQFWNEVNSLIAKYPQDANLGGLPDVVSKIKAYIRLRIARKTLVPDNVELQQINGEYVWAIVFYLLRAGFVTEAAQYVNSNQAHFRAIDRTFSGYINSYASSEERRLKRQMQDRCMSEYNQRIRNAPEGSIDPFRMACYKIIGRCDLSNRSLDGLQTDVNDWIWLQFNLARETDRSLELAGESYGLAELQASIREIGLKHFPKTAAEDTNGSFGMFFYLQILAGMFEQAIAYLYPFSYVDAVHFAIALTYYGLLRPVDAASAGNELLSHNTRSMPQINFGRMLGYYTRDFRAANPAAAVDYLVLICLNADEAAGGQQAQAALCHEALRELVLESREFSRLIGDIRPDGRRIRGVIEERGPLIALGQEDDFIRTITLQAASFADDNGRTTDAVLLYHLAEDYDTVVSIVSRALSEAISLEIGEDPMRLIPVKPRVTNAEGQVEEAAPGSSLSLAAIDDPVELAKAMMGMYERDHMFWQKIREPNRVACSVLLQMADIKSLVEQGRWAECLDKIRALDILPLTARGDPGTIRSYAARFPSLAQPVAINVPNLLMWTVLCCMRQRERLAGGQFAGNESTARLMMDELKQMTVDLMAYTSQLRYRLPPHLHEALARASAD

Variants of: B1
Settings: with nu192_chatd NUP192, G0S4T0
Chain of nu192_chatd NUP192, G0S4T0 (G0S4T0 whole entry): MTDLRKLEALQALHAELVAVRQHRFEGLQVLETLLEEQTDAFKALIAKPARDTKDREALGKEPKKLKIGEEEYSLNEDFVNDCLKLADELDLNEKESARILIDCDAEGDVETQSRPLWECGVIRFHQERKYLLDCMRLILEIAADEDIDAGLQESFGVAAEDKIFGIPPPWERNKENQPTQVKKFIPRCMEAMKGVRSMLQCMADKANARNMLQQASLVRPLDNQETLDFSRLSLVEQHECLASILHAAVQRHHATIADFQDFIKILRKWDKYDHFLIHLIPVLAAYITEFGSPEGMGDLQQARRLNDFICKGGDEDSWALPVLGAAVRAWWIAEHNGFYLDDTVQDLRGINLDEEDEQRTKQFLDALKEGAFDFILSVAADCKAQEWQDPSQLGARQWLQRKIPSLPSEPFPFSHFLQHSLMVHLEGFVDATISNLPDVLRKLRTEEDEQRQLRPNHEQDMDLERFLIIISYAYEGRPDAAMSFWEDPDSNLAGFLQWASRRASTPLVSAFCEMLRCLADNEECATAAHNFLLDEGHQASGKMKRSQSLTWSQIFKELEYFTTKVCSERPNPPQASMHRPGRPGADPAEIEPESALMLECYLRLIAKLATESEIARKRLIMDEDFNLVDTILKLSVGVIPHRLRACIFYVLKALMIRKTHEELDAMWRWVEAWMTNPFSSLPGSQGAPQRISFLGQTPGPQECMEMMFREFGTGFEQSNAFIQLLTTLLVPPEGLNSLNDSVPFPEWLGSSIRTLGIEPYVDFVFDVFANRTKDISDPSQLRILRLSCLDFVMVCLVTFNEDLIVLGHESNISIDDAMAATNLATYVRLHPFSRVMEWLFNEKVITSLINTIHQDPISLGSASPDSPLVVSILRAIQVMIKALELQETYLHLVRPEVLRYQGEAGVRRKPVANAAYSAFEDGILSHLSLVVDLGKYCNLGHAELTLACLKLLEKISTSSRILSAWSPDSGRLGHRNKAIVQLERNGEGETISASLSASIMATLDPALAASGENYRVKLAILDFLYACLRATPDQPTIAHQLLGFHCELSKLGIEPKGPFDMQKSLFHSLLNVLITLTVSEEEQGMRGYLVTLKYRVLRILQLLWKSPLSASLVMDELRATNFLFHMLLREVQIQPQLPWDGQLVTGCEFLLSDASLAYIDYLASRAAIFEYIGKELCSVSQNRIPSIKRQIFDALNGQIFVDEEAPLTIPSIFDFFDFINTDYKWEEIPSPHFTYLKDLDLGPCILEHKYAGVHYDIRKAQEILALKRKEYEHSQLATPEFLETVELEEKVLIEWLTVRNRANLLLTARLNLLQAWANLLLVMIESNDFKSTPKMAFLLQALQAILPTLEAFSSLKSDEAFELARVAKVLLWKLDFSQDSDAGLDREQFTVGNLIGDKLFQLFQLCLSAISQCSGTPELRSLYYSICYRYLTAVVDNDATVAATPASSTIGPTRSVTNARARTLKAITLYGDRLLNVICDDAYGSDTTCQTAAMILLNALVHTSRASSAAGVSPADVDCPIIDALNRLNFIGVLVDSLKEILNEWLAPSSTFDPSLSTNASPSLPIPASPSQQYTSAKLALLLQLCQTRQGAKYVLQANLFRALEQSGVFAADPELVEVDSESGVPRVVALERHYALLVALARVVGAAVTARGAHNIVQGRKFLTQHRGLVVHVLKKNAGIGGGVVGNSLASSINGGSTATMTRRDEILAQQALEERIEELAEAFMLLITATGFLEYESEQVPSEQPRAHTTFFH

Row | effect of a mutation on the interaction | Variant
1 | decreasing interaction | Y251A;I264A;F275A;W287A
